# Source: PMC9482650, “Quantitative fragmentomics allow affinity mapping of interactomes” (Nature Communications, 2022)
# T1: DLG3_1, Q92796
# T1 sequence (Q92796 125-227, limits assumed, looked up): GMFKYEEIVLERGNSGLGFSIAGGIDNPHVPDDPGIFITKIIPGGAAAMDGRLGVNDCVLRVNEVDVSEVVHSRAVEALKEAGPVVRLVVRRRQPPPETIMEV
# T2: DLG3_2, Q92796
# T2 sequence (Q92796 221-321, limits assumed, looked up): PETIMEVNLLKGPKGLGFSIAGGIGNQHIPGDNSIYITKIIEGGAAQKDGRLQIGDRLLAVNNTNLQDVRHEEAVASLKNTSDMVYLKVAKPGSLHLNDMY
# T3: GRIP1_2, Q9Y3R0
# T3 sequence (Q9Y3R0 145-248, limits assumed, looked up): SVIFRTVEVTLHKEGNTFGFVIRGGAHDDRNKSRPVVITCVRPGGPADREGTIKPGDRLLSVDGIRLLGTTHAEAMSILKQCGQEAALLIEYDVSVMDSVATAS
# T4: GRIP1_7, Q9Y3R0
# T4 sequence (Q9Y3R0 999-1096, limits assumed, looked up): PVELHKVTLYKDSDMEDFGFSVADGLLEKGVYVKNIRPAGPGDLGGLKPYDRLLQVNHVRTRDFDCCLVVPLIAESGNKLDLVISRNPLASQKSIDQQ
# T5: LIN7A, O14910
# T5 sequence (O14910 103-200, limits assumed, looked up): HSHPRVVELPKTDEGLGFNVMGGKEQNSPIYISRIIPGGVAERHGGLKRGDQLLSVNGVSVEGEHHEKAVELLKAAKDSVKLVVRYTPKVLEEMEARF
# T6: LRRC7, Q96NW7
# T6 sequence (Q96NW7 1440-1537, limits assumed, looked up): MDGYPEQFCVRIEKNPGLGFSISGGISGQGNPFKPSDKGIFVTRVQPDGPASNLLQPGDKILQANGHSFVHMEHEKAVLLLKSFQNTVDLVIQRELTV
# T7: MPDZ_10, O75970
# T7 sequence (O75970 1624-1722, limits assumed, looked up): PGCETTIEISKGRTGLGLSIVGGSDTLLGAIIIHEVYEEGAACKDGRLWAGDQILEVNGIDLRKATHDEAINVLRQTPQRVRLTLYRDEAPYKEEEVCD
# T8: MPP2, Q14168
# T8 sequence (Q14168 180-250, limits assumed, looked up): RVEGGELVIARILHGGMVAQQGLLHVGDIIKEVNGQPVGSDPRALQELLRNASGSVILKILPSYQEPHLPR
# T9: RADIL, Q96JH8
# T9 sequence (Q96JH8 971-1071, limits assumed, looked up): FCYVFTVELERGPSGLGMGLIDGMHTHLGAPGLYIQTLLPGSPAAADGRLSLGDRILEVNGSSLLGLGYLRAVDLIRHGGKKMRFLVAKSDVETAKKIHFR
# T10: SIPA1L2, Q9P2F8
# T10 sequence (Q9P2F8 945-1036, limits assumed, looked up): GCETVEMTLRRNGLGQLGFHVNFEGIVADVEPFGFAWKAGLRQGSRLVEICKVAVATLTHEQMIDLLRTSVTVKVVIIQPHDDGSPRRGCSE
# Legend:
# Experiment in all cases: holdup assay
# Parameters in all cases: key: below the threshold = too weak to quantify, mostly under pKd 3.1 to 4
# [1] = biological target: T1, DLG3_1, Q92796
# [2] = biological target: T2, DLG3_2, Q92796
# [3] = biological target: DLG4_1, P78352
# [4] = biological target: FRMPD2_2, Q68DX3
# [5] = biological target: FRMPD2_3, Q68DX3
# [6] = biological target: T3, GRIP1_2, Q9Y3R0
# [7] = biological target: T4, GRIP1_7, Q9Y3R0
# [8] = biological target: Inadl_4, Q8NI35
# [9] = biological target: Inadl_5, Q8NI35
# [10] = biological target: T5, LIN7A, O14910
# [11] = biological target: LNX1_3, Q8TBB1
# [12] = biological target: T6, LRRC7, Q96NW7
# [13] = biological target: MAGI1_1, Q96QZ7
# [14] = biological target: MAGI1_2, Q96QZ7
# [15] = biological target: MAGI2_4, Q86UL8
# [16] = biological target: MAGI2_6, Q86UL8
# [17] = biological target: MAGI3_2, Q5TCQ9
# [18] = biological target: MAST1, Q9Y2H9
# [19] = biological target: T7, MPDZ_10, O75970
# [20] = biological target: T8, MPP2, Q14168
# [21] = biological target: NHERF4_4, Q86UT5
# [22] = biological target: PDLIM1, O00151
# [23] = biological target: T9, RADIL, Q96JH8
# [24] = biological target: SCRIB_3, Q14160
# [25] = biological target: T10, SIPA1L2, Q9P2F8
# [26] = biological target: TJP1_2, Q07157
# [27] = biological target: TJP2_1, Q9UDY2
# [28] = plain residues with an end cap or a label only (N-terminal biotin on a linker: ttds)
# [29] = plain residues with an end cap or a label only (N-terminal biotin on a linker: ado-ado)
# [30] = plain residues with an end cap or a label only (N-terminal biotin on a linker: ahx)
# MAGI1_1, Q96QZ7, sequence (Q96QZ7 1-106): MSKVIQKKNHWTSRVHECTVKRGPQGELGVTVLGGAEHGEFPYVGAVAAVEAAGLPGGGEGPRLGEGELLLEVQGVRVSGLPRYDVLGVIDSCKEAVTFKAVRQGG
# SCRIB_3, Q14160, sequence (Q14160 999-1103): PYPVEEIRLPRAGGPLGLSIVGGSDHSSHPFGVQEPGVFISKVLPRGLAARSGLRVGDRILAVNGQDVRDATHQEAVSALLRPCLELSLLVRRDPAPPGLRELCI
# PDLIM1, O00151, sequence (O00151 1-87): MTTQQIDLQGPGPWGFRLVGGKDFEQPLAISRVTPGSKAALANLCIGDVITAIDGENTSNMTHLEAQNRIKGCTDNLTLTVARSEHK
# TJP1_2, Q07157, sequence (Q07157 181-274): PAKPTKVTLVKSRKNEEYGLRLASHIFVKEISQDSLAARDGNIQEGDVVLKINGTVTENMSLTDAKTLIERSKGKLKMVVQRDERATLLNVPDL
# MAST1, Q9Y2H9, sequence (Q9Y2H9 962-1065): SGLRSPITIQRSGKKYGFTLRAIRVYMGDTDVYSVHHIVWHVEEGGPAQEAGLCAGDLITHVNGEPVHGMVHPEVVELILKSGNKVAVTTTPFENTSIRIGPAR
# Inadl_5, Q8NI35, sequence (Q8NI35 673-780): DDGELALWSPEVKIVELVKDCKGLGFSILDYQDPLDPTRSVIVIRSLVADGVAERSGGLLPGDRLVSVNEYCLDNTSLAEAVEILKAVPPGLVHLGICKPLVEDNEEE
# MAGI2_6, Q86UL8, sequence (Q86UL8 1141-1229): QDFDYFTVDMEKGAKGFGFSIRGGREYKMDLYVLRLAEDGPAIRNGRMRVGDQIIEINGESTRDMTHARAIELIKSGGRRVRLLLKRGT
# TJP2_1, Q9UDY2, sequence (Q9UDY2 24-128): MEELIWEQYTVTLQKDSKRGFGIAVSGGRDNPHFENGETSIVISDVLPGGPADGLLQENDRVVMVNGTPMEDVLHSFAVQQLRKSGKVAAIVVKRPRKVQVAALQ
# MAGI1_2, Q96QZ7, sequence (Q96QZ7 456-580): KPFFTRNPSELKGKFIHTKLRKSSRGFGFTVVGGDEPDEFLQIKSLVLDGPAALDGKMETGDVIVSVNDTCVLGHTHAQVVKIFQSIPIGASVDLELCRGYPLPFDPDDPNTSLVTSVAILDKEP
# MAGI3_2, Q5TCQ9, sequence (Q5TCQ9 398-503): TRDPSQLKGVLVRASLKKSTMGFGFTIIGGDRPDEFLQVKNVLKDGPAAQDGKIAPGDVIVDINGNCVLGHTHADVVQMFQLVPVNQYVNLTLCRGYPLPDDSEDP
# MAGI2_4, Q86UL8, sequence (Q86UL8 772-865): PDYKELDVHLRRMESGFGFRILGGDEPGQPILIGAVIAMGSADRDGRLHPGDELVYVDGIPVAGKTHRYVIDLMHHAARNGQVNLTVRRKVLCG
# FRMPD2_2, Q68DX3, sequence (Q68DX3 944-1038): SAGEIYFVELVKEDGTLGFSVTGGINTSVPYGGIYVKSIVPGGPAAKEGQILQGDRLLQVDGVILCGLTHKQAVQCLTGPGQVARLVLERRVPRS
# LNX1_3, Q8TBB1, sequence (Q8TBB1 500-596): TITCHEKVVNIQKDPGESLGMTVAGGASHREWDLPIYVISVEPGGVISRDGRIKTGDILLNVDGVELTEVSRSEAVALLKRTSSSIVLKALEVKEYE
# FRMPD2_3, Q68DX3, sequence (Q68DX3 1073-1166): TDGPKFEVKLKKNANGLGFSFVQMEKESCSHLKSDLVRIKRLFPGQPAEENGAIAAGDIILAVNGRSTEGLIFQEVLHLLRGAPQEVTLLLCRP
# DLG4_1, P78352, sequence (P78352 62-152): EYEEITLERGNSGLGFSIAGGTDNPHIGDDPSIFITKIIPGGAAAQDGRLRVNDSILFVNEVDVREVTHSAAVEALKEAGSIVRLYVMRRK
# NHERF4_4, Q86UT5, sequence (Q86UT5 464-550): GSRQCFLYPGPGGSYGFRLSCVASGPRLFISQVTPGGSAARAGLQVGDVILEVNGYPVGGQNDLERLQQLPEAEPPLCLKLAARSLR
# Inadl_4, Q8NI35, sequence (Q8NI35 547-651): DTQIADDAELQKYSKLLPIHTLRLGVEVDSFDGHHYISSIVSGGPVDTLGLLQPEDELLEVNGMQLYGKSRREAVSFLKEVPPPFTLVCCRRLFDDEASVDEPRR
binder,measurement,setting,value
"PSRDRKETSI [RALBP1, Q15311]",pKd,[1]; [28],3.3
same,pKd,[2]; [28],4.35
same,pKd,[3]; [28],3.97
same,pKd,[4]; [28],3.31
same,pKd,[5]; [28],below the threshold
same,pKd,[6]; [28],3.45
same,pKd,[7]; [28],3.49
same,pKd,[8]; [28],below the threshold
same,pKd,[9]; [28],below the threshold
same,pKd,[10]; [28],below the threshold
same,pKd,[11]; [28],below the threshold
same,pKd,[12]; [28],below the threshold
same,pKd,[13]; [28],below the threshold
same,pKd,[14]; [28],3.91
same,pKd,[15]; [28],below the threshold
same,pKd,[16]; [28],below the threshold
same,pKd,[17]; [28],4.76
same,pKd,[18]; [28],4.56
same,pKd,[19]; [28],below the threshold
same,pKd,[20]; [28],below the threshold
same,pKd,[21]; [28],below the threshold
same,pKd,[22]; [28],below the threshold
same,pKd,[23]; [28],below the threshold
same,pKd,[24]; [28],4.97
same,pKd,[25]; [28],below the threshold
same,pKd,[26]; [28],below the threshold
same,pKd,[27]; [28],below the threshold
"SQDPKKPSRV [CBY2, Q8NA61]",pKd,[1]; [29],below the threshold
same,pKd,[2]; [29],below the threshold
same,pKd,[3]; [29],3.66
same,pKd,[4]; [29],below the threshold
same,pKd,[5]; [29],below the threshold
same,pKd,[6]; [29],below the threshold
same,pKd,[7]; [29],below the threshold
same,pKd,[8]; [29],below the threshold
same,pKd,[9]; [29],below the threshold
same,pKd,[10]; [29],below the threshold
same,pKd,[11]; [29],below the threshold
same,pKd,[12]; [29],below the threshold
same,pKd,[13]; [29],3.49
same,pKd,[14]; [29],below the threshold
same,pKd,[15]; [29],below the threshold
same,pKd,[16]; [29],below the threshold
same,pKd,[17]; [29],4.44
same,pKd,[18]; [29],below the threshold
same,pKd,[19]; [29],3.7
same,pKd,[20]; [29],below the threshold
same,pKd,[21]; [29],3.67
same,pKd,[22]; [29],below the threshold
same,pKd,[23]; [29],3.61
same,pKd,[24]; [29],below the threshold
same,pKd,[25]; [29],below the threshold
same,pKd,[26]; [29],below the threshold
same,pKd,[27]; [29],below the threshold
"HSATSVHTSV [MTMR1, Q13613]",pKd,[1]; [30],3.9
same,pKd,[2]; [30],4.72
same,pKd,[3]; [30],4.21
same,pKd,[4]; [30],below the threshold
same,pKd,[5]; [30],below the threshold
same,pKd,[6]; [30],below the threshold
same,pKd,[7]; [30],below the threshold
same,pKd,[8]; [30],below the threshold
same,pKd,[9]; [30],below the threshold
same,pKd,[10]; [30],below the threshold
same,pKd,[11]; [30],below the threshold
same,pKd,[12]; [30],below the threshold
same,pKd,[13]; [30],below the threshold
same,pKd,[14]; [30],3.52
same,pKd,[15]; [30],below the threshold
same,pKd,[16]; [30],3.66
same,pKd,[17]; [30],3.59
same,pKd,[18]; [30],3.67
same,pKd,[19]; [30],3.81
same,pKd,[20]; [30],below the threshold
same,pKd,[21]; [30],below the threshold
same,pKd,[22]; [30],3.72
same,pKd,[23]; [30],below the threshold
same,pKd,[24]; [30],3.74
same,pKd,[25]; [30],below the threshold
same,pKd,[26]; [30],below the threshold
same,pKd,[27]; [30],below the threshold
"VNENQKEYFF [CNTNAP4, Q9C0A0]",pKd,[1]; [30],below the threshold
same,pKd,[2]; [30],below the threshold
same,pKd,[3]; [30],below the threshold
same,pKd,[4]; [30],below the threshold
same,pKd,[5]; [30],below the threshold
same,pKd,[6]; [30],below the threshold
same,pKd,[7]; [30],4.14
same,pKd,[8]; [30],below the threshold
same,pKd,[9]; [30],3.61
same,pKd,[10]; [30],below the threshold
same,pKd,[11]; [30],below the threshold
same,pKd,[12]; [30],below the threshold
same,pKd,[13]; [30],below the threshold
same,pKd,[14]; [30],below the threshold
same,pKd,[15]; [30],3.55
same,pKd,[16]; [30],3.51
same,pKd,[17]; [30],below the threshold
same,pKd,[18]; [30],4.3
same,pKd,[19]; [30],below the threshold
same,pKd,[20]; [30],below the threshold
same,pKd,[21]; [30],4.1
same,pKd,[22]; [30],below the threshold
same,pKd,[23]; [30],4.3
same,pKd,[24]; [30],3.7
same,pKd,[25]; [30],below the threshold
same,pKd,[26]; [30],below the threshold
same,pKd,[27]; [30],below the threshold
